Like-named read-outs stand apart in the source and are kept apart here. Non-standard residues stand in square brackets, D forms with d. No end group written: not given here. Phe(4-Ac) = CC(=O)c1ccc(C[C@H](N)C(=O)O)cc1
How the values were obtained:
human RXFP3 [1] = target: T1, human RXFP3 (Homo sapiens, UniProt Q9NSD7); settings: literature value; read-out: EC50 value reported in the literature, human RXFP3; cited from earlier work
T1 sequence (Q9NSD7 1-469): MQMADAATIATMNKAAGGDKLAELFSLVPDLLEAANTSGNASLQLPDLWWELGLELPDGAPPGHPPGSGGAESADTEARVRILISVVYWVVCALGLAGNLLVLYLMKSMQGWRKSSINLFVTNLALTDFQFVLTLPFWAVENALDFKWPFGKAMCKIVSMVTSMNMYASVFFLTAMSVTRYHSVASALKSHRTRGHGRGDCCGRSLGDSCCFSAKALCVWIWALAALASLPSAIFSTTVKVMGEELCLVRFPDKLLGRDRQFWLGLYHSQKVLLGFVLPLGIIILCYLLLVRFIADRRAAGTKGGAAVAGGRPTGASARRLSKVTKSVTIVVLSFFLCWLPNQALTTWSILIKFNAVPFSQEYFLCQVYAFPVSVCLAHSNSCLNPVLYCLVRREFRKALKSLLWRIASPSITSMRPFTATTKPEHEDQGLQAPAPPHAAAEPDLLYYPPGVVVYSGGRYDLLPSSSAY

human RXFP3 [2] = target: T1, human RXFP3; assay: Inhibition of forskolin-induced cAMP in human RXFP3/CHO-K1 stable line; assay type: cell-based; settings: CHO-K1 stable line
Description: The RXFP cDNAs, RXFP family members, as well as species orthologs, were obtained from commercially available cDNA clones or amplified from tissue RNAs as follows. Human RXFP1: A cDNA clone was obtained from OpenBiosystems (MHS4426-99239031. Human RXFP2: A cDNA clone for transcript variant 1 was obtained from OpenBiosystems (OHS4559-99620528). Cynomolgus monkey RXFP1: The cDNA was cloned out of Mauritian cyno brain RNA by RT-PCR using the following primers: forward: 5′-[…]-3′ (SEQ ID NO: 37); reverse: 5′-[…]-3′ (SEQ ID NO: 38). Dog RXFP1: The cDNA was cloned out of dog brain RNA by RT-PCR using the following primers: forward: 5′-[…]-3′ (SEQ ID NO: 39); reverse: 5′-[…]-3′ (SEQ ID NO: 40). Rat RXFP1: The cDNA was cloned out of Sprague Dawley rat brain RNA by RT-PCR using the following primers: forward: 5′-[…]-3′ (SEQ ID NO: 41); reverse: 5′-[…]-3 (SEQ ID NO: 42)′. Human RXFP3: A Gateway entry clone in vector pDONR221 was obtained from Invitrogen (IOH28381). Human RXFP4: A Gateway entry clone in vector pDONR201 was obtained. Mouse RXFP1: A Gateway entry clone in vector pDONR223 was obtained from OpenBiosystems (OMM4760-101549000). Using standard procedures (Gateway LR recombination), the RXFP entry clones were transferred into expression vector pEF-DEST51 (Invitrogen). In contrast to the all other RXFP clones, human RXFP4 was transferred into pcDNA3.1 (Invitrogen). […]

human RXFP4 [3] = target: T2, human RXFP4 (Homo sapiens, UniProt Q8TDU9); assay: Inhibition of forskolin-induced cAMP in human RXFP4/CHO-K1 stable line; assay type: cell-based
T2 construct: expressed in transfected cells
T2 sequence (Q8TDU9 whole entry): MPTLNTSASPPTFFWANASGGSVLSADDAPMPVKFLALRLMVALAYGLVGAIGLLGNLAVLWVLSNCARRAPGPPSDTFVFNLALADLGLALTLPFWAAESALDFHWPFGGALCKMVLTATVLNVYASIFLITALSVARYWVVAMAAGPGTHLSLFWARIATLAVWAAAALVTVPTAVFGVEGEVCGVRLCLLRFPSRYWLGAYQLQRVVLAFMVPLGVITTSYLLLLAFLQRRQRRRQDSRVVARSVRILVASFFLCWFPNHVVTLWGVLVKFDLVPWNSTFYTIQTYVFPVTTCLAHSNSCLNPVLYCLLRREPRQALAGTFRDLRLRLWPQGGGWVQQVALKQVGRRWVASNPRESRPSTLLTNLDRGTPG
Description: The RXFP cDNAs, RXFP family members, as well as species orthologs, were obtained from commercially available cDNA clones or amplified from tissue RNAs as follows. Human RXFP1: A cDNA clone was obtained from OpenBiosystems (MHS4426-99239031. Human RXFP2: A cDNA clone for transcript variant 1 was obtained from OpenBiosystems (OHS4559-99620528). Cynomolgus monkey RXFP1: The cDNA was cloned out of Mauritian cyno brain RNA by RT-PCR using the following primers: forward: 5′-[…]-3′ (SEQ ID NO: 37); reverse: 5′-[…]-3′ (SEQ ID NO: 38). Dog RXFP1: The cDNA was cloned out of dog brain RNA by RT-PCR using the following primers: forward: 5′-[…]-3′ (SEQ ID NO: 39); reverse: 5′-[…]-3′ (SEQ ID NO: 40). Rat RXFP1: The cDNA was cloned out of Sprague Dawley rat brain RNA by RT-PCR using the following primers: forward: 5′-[…]-3′ (SEQ ID NO: 41); reverse: 5′-[…]-3 (SEQ ID NO: 42)′. Human RXFP3: A Gateway entry clone in vector pDONR221 was obtained from Invitrogen (IOH28381). Human RXFP4: A Gateway entry clone in vector pDONR201 was obtained. Mouse RXFP1: A Gateway entry clone in vector pDONR223 was obtained from OpenBiosystems (OMM4760-101549000). Using standard procedures (Gateway LR recombination), the RXFP entry clones were transferred into expression vector pEF-DEST51 (Invitrogen). In contrast to the all other RXFP clones, human RXFP4 was transferred into pcDNA3.1 (Invitrogen). For each construct, the RXFP cDNA, as well as its proper insertion into the expression vector, was verified by DNA sequencing.
CHO-K1 cells (ATCC #CRL-9618) were prepared for stable line generation by propagating at 37° C. with 5% CO2 in F-12 plus GlutaMAX-I medium (GIBCO #31765) supplemented with 10% fetal bovine heat-inactivated serum (Invitrogen #16140), and 1× Antibiotic-Antimycotic (GIBCO #15240-096). CHO-K1 cells were transfected with 12 μg of the appropriate expression construct plasmid using the FuGENE® 6 reagent (Roche #11814443 001) and the protocol provided by the manufacturer. One day post-transfection cells were replated into medium containing 10 μg of Blasticidin S HCl per mL (GIBCO #A11139-02). […]

human RXFP4 [4] = target: T2, human RXFP4; settings: literature value; read-out: EC50 value reported in the literature, human RXFP4; cited from earlier work
[5] = PK of 20 kDa PEGylated relaxin polypeptides after a single subcutaneous injection in SD rats (Example 40); assay type: in vivo, Sprague-Dawley (SD) rats; settings: for AUCinf / CL (mL/hr) / Cmax / MRT / Tmax / Vz / Terminal HL / Mean serum Conc.: 0.5 mg/kg SC; for AUCinf / CL (mL/hr) / Cmax / MRT / Tmax / Vz / Terminal HL: SD rats; for Terminal HL: non-compartmental; for Mean serum Conc.: male SD rats; for In vivo PK Term HL: 20K PEG
Description: This example evaluates the pharmacokinetic properties of 20 kDa PEGylated relaxin polypeptides following a single subcutaneous injection in SD rats.
1st order elimination model and Gauss-Newton (Levenberg-Hartley) model fit equation. […] FIG. 8A-8/compares group mean serum concentration versus time for all PEG-Relaxin compounds dosed. All dose groups had measurable serum PEG-Relaxin levels.

| Substance | AUCinf [5] | CL (mL/hr) [5] | Cmax [5] | MRT [5] | Tmax [5] | Vz [5] | Terminal HL [5] | Mean serum Conc. ([5]; 1 hr) | Mean serum Conc. ([5]; 2 hr) | Mean serum Conc. ([5]; 4 hr) | Mean serum Conc. ([5]; 8 hr) | Mean serum Conc. ([5]; 12 hr) | Mean serum Conc. ([5]; 25 hr) | Mean serum Conc. ([5]; 34 hr) | Mean serum Conc. ([5]; 50 hr) | Mean serum Conc. ([5]; 58 hr) | Mean serum Conc. ([5]; 73 hr) | Mean serum Conc. ([5]; 80 hr) | Mean serum Conc. ([5]; pre-dose (PD)) | In vivo PK Term HL [5] | other results |
| --- | --- | --- | --- | --- | --- | --- | --- | --- | --- | --- | --- | --- | --- | --- | --- | --- | --- | --- | --- | --- | --- |
| H3-RLX: H3-relaxin, the endogenous ligand for RXFP3 and RXFP4 receptors, positive control | – | – | – | – | – | – | – | – | – | – | – | – | – | – | – | – | – | – | – | – | EC50 (human RXFP3 [1]): 0.4 nM; EC50 (human RXFP3 [2]): 0.6 nM; Maximal inhibition of forskolin-induced cAMP, human RXFP4 (partial agonist activity) (human RXFP4 [3]): ~40%; EC50 (human RXFP4 [3]; CHO-K1 stable line, inhibition of forskolin-induced cAMP): 2.8 ± 1.5 nM; EC50 (human RXFP4 [4]): 1.1 nM |
| RLX-A-AA5-20KPEG-001: relaxin variant, B1 Ala, pAF at A chain position A5, 20K PEGylated (chain 1 QLYSXLANKCCHVGCTKRSLARFC; chain 2 ASWMEEVIKLCGRELVRAQIAICGMSTWS; not fully specified; non-natural residues) | 16095.9 ng·h/mL | 0.518 mL/min/kg | 438.0 ng/mL | 29.4 h | 25.0 h | 0.5474 L/kg | 12.2 h | 19.9 ng/mL | 100.1 ng/mL | 185.0 ng/mL | 264.7 ng/mL | 434.3 ng/mL | 438.0 ng/mL | 353.5 ng/mL | 86.9 ng/mL | 62.4 ng/mL | 32.8 ng/mL | 22.1 ng/mL | BQL | 12.2 h | – |
| RLX-A-AR18-20KPEG-001: relaxin variant, B1 Ala, pAF at A chain position R18, 20K PEGylated (chain 1 QLYSALANKCCHVGCTKXSLARFC; chain 2 ASWMEEVIKLCGRELVRAQIAICGMSTWS; not fully specified; non-natural residues) | 12985.5 ng·h/mL | 0.64 mL/min/kg | 345.9 ng/mL | 27.7 h | 25.0 h | 0.6947 L/kg | 12.5 h | 33.9 ng/mL | 109.7 ng/mL | 172.7 ng/mL | 270.5 ng/mL | 332.5 ng/mL | 398.6 ng/mL | 264.3 ng/mL | 76.7 ng/mL | 61.8 ng/mL | 25.0 ng/mL | 14.9 ng/mL | BQL | 12.5 h | – |
| RLX-A-AV13-20KPEG-001: relaxin variant, B1 Ala, pAF substituted for valine 13 in the A chain, 20K PEG attached (chain 1 QLYSALANKCCHXGCTKRSLARFC; chain 2 ASWMEEVIKLCGRELVRAQIAICGMSTWS; not fully specified; non-natural residues) | 32230.5 ng·h/mL | 0.258 mL/min/kg | 742.5 ng/mL | 32.7 h | 25.0 h | 0.3254 L/kg | 14.6 h | 44.9 ng/mL | 138.9 ng/mL | 345.7 ng/mL | 533.6 ng/mL | 630.1 ng/mL | 742.5 ng/mL | 540.7 ng/mL | 320.9 ng/mL | 209.4 ng/mL | 75.0 ng/mL | 58.7 ng/mL | BQL | – | – |
| RLX-A-BV7-20KPEG-001: relaxin variant, B1 Ala, pAF at B chain position V7, 20K PEGylated (chain 1 QLYSALANKCCHVGCTKRSLARFC; chain 2 ASWMEE[Phe(4-Ac)](PEG 20 kDa)IKLCGRELVRAQIAICGMSTWS; not fully specified (bridges); ends and bridges not checked) | 17260.9 ng·h/mL | 0.482 mL/min/kg | 471.6 ng/mL | 27.9 h | 12.0 h | 0.5469 L/kg | 13.1 h | 25.7 ng/mL | 98.9 ng/mL | 248.5 ng/mL | 343.5 ng/mL | 457.3 ng/mL | 518.5 ng/mL | 270.4 ng/mL | 104.0 ng/mL | 63.5 ng/mL | 26.0 ng/mL | 22.6 ng/mL | BQL | 13.1 h | – |
| RLX-A-BW28-20KPEG-001: relaxin variant, B1 Ala, pAF at B chain position W28, 20K PEGylated (chain 1 QLYSALANKCCHVGCTKRSLARFC; chain 2 ASWMEEVIKLCGRELVRAQIAICGMST[Phe(4-Ac)](PEG 20 kDa)S; not fully specified (bridges); ends and bridges not checked) | 22191.2 ng·h/mL | 0.375 mL/min/kg | 511.0 ng/mL | 31.1 h | 25.0 h | 0.4526 L/kg | 13.9 h | 36.4 ng/mL | – | 228.5 ng/mL | 380.9 ng/mL | 486.6 ng/mL | 511.0 ng/mL | 404.8 ng/mL | 184.2 ng/mL | 122.3 ng/mL | 48.8 ng/mL | 37.1 ng/mL | BQL | 13.9 h | – |

Source: patent US11786578B2, “Modified relaxin polypeptides and their uses” (AMBRX, INC., priority 2010, dated 2023)
